Measured values published in EP2544694B1 (Novelmed Therapeutics, Inc., dated 2018).

Molecular target: human properdin (human, UniProt P27918 28-469)
Experiment: cell-based or functional assay

Chain of human properdin (P27918 28-469 limits assumed): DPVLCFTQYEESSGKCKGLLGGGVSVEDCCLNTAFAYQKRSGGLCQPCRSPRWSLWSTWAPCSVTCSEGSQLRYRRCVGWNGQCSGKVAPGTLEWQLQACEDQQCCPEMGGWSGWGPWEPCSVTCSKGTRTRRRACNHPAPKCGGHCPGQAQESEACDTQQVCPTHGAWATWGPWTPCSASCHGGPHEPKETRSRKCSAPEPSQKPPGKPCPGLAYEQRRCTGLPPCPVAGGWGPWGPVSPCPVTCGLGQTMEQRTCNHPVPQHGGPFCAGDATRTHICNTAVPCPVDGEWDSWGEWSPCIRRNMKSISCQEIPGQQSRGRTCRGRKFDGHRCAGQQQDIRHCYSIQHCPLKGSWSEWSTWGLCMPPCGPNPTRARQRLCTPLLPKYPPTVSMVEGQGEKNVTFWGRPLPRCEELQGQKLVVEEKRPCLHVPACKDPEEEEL

B1: anti-properdin monoclonal antibody IgG (14G11) (antibody, V domains shown)
VH: QVTLKESGPGILQPSQTLSLTCSFSGFSLSTSGMGVGWIRQPSGKGLEWLAHIWWDDVKSYNPALKSRLTISKDTSSSQVFLRIASVDTADTATYYCARIGDGYYSFDYWGQGTTLTVSS
VL: DIVMTQSHKFMSTSVGDRVSISCKASQDVSDAVAWFQQKPGQSPKLLIYSPSYRYTGVPDRFTGSGSGTDFTFTISSVQAEDLAVYYCQQHYSTPWTFGGGTKLEIKR
IC50 of inhibition of AP dependent hemolysis of rRBC in 10% normal human serum: 10 nM
